From patent US20250076311A1 (Chugai, published 2025) come the findings set out here.

Test [1] addresses T1, cynomolgus monkey FcγRIIIaS extracellular domain with C-terminal His-tag (cynomolgus monkey, UniProt Q8SPW2 21-206 at identity 1.00)).
T1 construct: also called cyno FcgRIIIaS; cynoFcγRIIIaS
T1 chain: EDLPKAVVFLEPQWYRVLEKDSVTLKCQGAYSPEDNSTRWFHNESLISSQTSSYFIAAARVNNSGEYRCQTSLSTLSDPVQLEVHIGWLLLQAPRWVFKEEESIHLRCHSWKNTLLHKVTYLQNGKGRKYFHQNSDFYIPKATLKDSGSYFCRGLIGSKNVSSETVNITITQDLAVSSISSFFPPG
Kind of test: SPR (Biacore), antibody captured, FcgR analyte.

For test [2], the target named is T2, cynomolgus monkey FcγRIIa1 extracellular domain with C-terminal His-tag (cynomolgus monkey).
T2 construct: also called cyno FcgRIIa1; cynoFcγRIIa1
T2 chain: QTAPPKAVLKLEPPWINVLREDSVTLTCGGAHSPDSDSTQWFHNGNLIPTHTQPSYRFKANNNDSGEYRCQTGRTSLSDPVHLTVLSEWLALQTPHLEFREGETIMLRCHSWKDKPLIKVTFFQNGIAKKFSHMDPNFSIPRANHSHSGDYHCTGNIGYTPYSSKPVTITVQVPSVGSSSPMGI
Kind of test: SPR (Biacore), KD of SG1 / KD of variant.

Test [3] has as its target T3, human FcγRIIaH extracellular domain with C-terminal His-tag (human, UniProt P12318 34-217).
T3 construct: also called human FcgRIIaH; FcγRIIa (type H)
T3 sequence: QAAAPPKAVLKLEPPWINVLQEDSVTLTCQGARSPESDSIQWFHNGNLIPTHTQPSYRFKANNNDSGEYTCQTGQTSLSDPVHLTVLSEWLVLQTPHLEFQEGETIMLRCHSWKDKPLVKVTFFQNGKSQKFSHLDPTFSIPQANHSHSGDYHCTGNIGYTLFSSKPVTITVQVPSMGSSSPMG
Put plainly: SPR (Biacore), KD of SG1 / KD of variant.

Test [4] concerns the target T4, human FcγRIIaR extracellular domain with C-terminal His-tag (human, UniProt P12318 34-217).
T4 construct: also called human FcgRIIaR; FcγRIIa (type R)
T4 chain: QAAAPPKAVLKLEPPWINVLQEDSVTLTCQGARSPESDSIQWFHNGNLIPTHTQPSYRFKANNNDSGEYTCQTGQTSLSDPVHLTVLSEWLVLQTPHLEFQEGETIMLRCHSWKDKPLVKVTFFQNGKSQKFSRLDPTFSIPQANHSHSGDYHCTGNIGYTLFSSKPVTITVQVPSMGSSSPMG
Kind of test: SPR (Biacore), KD of SG1 divided by KD of variant. As for the experimental part: (§1) The kinetic analysis of interactions between these antibodies and FcγR was carried out using BIACORE® T200 or BIACORE® 4000 (GE Healthcare). HBS-EP+ (GE Healthcare) was used as the running buffer, and the measurement temperature was set to 25° C. […] After the measurement, the antibody captured on the chip was washed off by allowing reaction with 10 mM glycine-HCl, pH1.5 and 25 mM NaOH so that the chip was regenerated and used repeatedly. The sensorgrams obtained as measurement results were analyzed by the 1:1 Langmuir binding model using the BIACORE® Evaluation Software to calculate the binding rate constant ka (L/mol/s) and dissociation rate constant kd (1/s), and the dissociation constant KD (mol/L) was calculated from these values. […] Regarding such interactions, KD values were calculated using the following 1:1 binding model described in BIACORE® T100 Software Handbook BR1006-48 Edition AE.

The target in test [5] is T5, cynomolgus monkey FcγRIIa3 extracellular domain with C-terminal His-tag (cynomolgus monkey).
T5 construct: also called cyno FcgRIIa3; cynoFcγRIIa3
T5 chain: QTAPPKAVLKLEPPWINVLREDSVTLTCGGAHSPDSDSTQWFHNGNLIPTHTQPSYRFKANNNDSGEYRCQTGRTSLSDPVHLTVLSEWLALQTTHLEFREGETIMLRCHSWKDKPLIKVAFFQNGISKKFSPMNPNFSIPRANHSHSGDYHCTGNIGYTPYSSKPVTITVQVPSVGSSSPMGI
Kind of test: SPR (Biacore), KD of SG1 divided by KD of variant. As for the experimental part: as §1

Test [6] has as its target T6, cynomolgus monkey FcγRIIb extracellular domain with C-terminal His-tag (cynomolgus monkey).
T6 construct: also called cyno FcgRIIb; cynoFcγRIIb
T6 chain: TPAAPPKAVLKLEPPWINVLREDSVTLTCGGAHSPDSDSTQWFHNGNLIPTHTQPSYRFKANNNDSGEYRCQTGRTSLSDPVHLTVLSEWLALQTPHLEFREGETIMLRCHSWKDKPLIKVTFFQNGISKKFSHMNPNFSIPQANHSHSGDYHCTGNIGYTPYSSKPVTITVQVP
Put plainly: SPR (Biacore), antibody captured, FcgR as analyte.

The target in test [7] is T7, human FcγRIIIaV extracellular domain with C-terminal His-tag (human, UniProt P08637 17-208).
T7 construct: also called human FcgRIIIaV
Put plainly: SPR (Biacore), antibody captured, FcgR as analyte.

Test [8] has as its target T6, cynomolgus monkey FcγRIIb extracellular …. Kind of test: SPR (Biacore), KD of SG1 divided by KD of variant. As for the experimental part:
as §1

T7 sequence (P08637 17-208 F176V): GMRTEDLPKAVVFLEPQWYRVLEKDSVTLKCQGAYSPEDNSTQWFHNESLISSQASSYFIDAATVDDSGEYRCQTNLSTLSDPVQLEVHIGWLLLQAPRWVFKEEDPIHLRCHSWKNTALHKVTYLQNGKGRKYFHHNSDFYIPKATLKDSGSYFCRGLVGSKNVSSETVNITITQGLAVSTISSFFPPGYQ

B1: M103205H795-MY472/M103202L889-SK1 (antibody)
chain 1: QVTLKESGPVLVKPTETLTLTCTVSGIDLSHDDISWVRQAPGKGLEWVGIISYAGSTYYASWAKGRLTISKDTSKNQVVLTMTNMDPVDTATYYCARGVPAYSHGGDLWGQGTLVTVSSASTKGPSVFPLAPSSKSTSGGTAALGCLVKDYFPEPVTVSWNSGALTSGVHTFPAVLQSSGLYSLSSVVTVPSSSLGTQTYICNVNHKPSNTKVDKKVEPKSCDKTHTCPPCPSPELLTGPSVFLFPPKPKDTLMISRTPEVTCVVVDVSDEDPEVKFNWYVDGVEVHNAKTKPREEQYNSTYRVVSVLTVLHQDWLNGKEYKCKVSNKALPKPIEKTISKAKGQPREPQVYTLPPSREEMTKNQVSLTCLVKGFYPSDIAVEWESNGQPENNYKTTPPVLDSDGSFFLYSKLTVDKSRWQQGNVFSCSVMHEALHNHYTQKSLSLSP
chain 2: DIVMTQSPATLSLSPGERATLSCTSSQSVYHANWLSWFQQKPGQPPKLLIYWASTLAYGVPSRFSGSGSGTDFTLTISSLQPEDAATYYCAGGYGGGRYAFGQGTKVEIKRTVAAPSVFIFPPSDEQLKSGTASVVCLLNNFYPREAKVQWKVDNALQSGNSQESVTEQDSKDSTYSLSSTLTLSKADYEKHKVYACEVTHQGLSSPVTKSFNRGEC
For B1, in test [1], the affinity, expressed as Kd, was 2300 nM. Also, the “KD fold (SG1 = 1)” value in test [2] was found to be 1.3 fold; in test [3], 2.8 fold.

B2: M103205H795-MY283 / M103202L889-SK1 (antibody, human IgG1, kappa, name in EU numbering)
heavy: QVTLKESGPVLVKPTETLTLTCTVSGIDLSHDDISWVRQAPGKGLEWVGIISYAGSTYYASWAKGRLTISKDTSKNQVVLTMTNMDPVDTATYYCARGVPAYSHGGDLWGQGTLVTVSSASTKGPSVFPLAPSSKSTSGGTAALGCLVKDYFPEPVTVSWNSGALTSGVHTFPAVLQSSGLYSLSSVVTVPSSSLGTQTYICNVNHKPSNTKVDKKVEPKSCDKTHTCPPCPAPELLTGPSVFLFPPKPKDTLMISRTPEVTCVVVDVSDEDPEVKFNWYVDGVEVHNAKTKPREELYNSTYRVVSVLTVLHQDWLNGKEYKCKVSNKALPKPIEKTISKAKGQPREPQVYTLPPSREEMTKNQVSLTCLVKGFYPSDIAVEWESNGQPENNYKTTPPVLDSDGSFFLYSKLTVDKSRWQQGNVFSCSVMHEALHNHYTQKSLSLSP
light: DIVMTQSPATLSLSPGERATLSCTSSQSVYHANWLSWFQQKPGQPPKLLIYWASTLAYGVPSRFSGSGSGTDFTLTISSLQPEDAATYYCAGGYGGGRYAFGQGTKVEIKRTVAAPSVFIFPPSDEQLKSGTASVVCLLNNFYPREAKVQWKVDNALQSGNSQESVTEQDSKDSTYSLSSTLTLSKADYEKHKVYACEVTHQGLSSPVTKSFNRGEC
B2: the results for the “KD fold (SG1 = 1)” value in test [4] and in test [5] were 3.1 fold and 3.9 fold, respectively.

B3: M103205H795-MY523 / M103202L889-SK1 (antibody, human IgG1, kappa, name in EU numbering)
heavy: QVTLKESGPVLVKPTETLTLTCTVSGIDLSHDDISWVRQAPGKGLEWVGIISYAGSTYYASWAKGRLTISKDTSKNQVVLTMTNMDPVDTATYYCARGVPAYSHGGDLWGQGTLVTVSSASTKGPSVFPLAPSSKSTSGGTAALGCLVKDYFPEPVTVSWNSGALTSGVHTFPAVLQSSGLYSLSSVVTVPSSSLGTQTYICNVNHKPSNTKVDKKVEPKSCDKTHTCPPCPGPELLTGPVVFLFPPKPKDTLMISRTPEVTCVVVDVSDEDPEVKFNWYVDGVEVHNAKTKPREELYNSTYRVVSVLTVLHQDWLNGKEYKCKVSNKALPKPIEKTISKAKGQPREPQVYTLPPSREEMTKNQVSLTCLVKGFYPSDIAVEWESNGQPENNYKTTPPVLDSDGSFFLYSKLTVDKSRWQQGNVFSCSVMHEALHNHYTQKSLSLSP
light: DIVMTQSPATLSLSPGERATLSCTSSQSVYHANWLSWFQQKPGQPPKLLIYWASTLAYGVPSRFSGSGSGTDFTLTISSLQPEDAATYYCAGGYGGGRYAFGQGTKVEIKRTVAAPSVFIFPPSDEQLKSGTASVVCLLNNFYPREAKVQWKVDNALQSGNSQESVTEQDSKDSTYSLSSTLTLSKADYEKHKVYACEVTHQGLSSPVTKSFNRGEC
B3 came in with a Kd in test [6] of 480 nM. In addition, the “KD fold (SG1 = 1)” value in test [4] was 5.2 fold.

B4: M103205H795-MY388 (first row so labelled: G236L/H268D/Q295L/K326T/A330K) / M103202L889-SK1 (antibody, human IgG1, kappa, name in EU numbering)
heavy: QVTLKESGPVLVKPTETLTLTCTVSGIDLSHDDISWVRQAPGKGLEWVGIISYAGSTYYASWAKGRLTISKDTSKNQVVLTMTNMDPVDTATYYCARGVPAYSHGGDLWGQGTLVTVSSASTKGPSVFPLAPSSKSTSGGTAALGCLVKDYFPEPVTVSWNSGALTSGVHTFPAVLQSSGLYSLSSVVTVPSSSLGTQTYICNVNHKPSNTKVDKKVEPKSCDKTHTCPPCPAPELLLGPSVFLFPPKPKDTLMISRTPEVTCVVVDVSDEDPEVKFNWYVDGVEVHNAKTKPREELYNSTYRVVSVLTVLHQDWLNGKEYKCKVSNTALPKPIEKTISKAKGQPREPQVYTLPPSREEMTKNQVSLTCLVKGFYPSDIAVEWESNGQPENNYKTTPPVLDSDGSFFLYSKLTVDKSRWQQGNVFSCSVMHEALHNHYTQKSLSLSP
light: DIVMTQSPATLSLSPGERATLSCTSSQSVYHANWLSWFQQKPGQPPKLLIYWASTLAYGVPSRFSGSGSGTDFTLTISSLQPEDAATYYCAGGYGGGRYAFGQGTKVEIKRTVAAPSVFIFPPSDEQLKSGTASVVCLLNNFYPREAKVQWKVDNALQSGNSQESVTEQDSKDSTYSLSSTLTLSKADYEKHKVYACEVTHQGLSSPVTKSFNRGEC
notes: The label MY388 is printed for two different variants; also called MY388 (first of two rows with this label)
On to B4, for which the figures for the Kd in test [7] and in test [6] were 2.4 nM and 1600 nM, respectively.

B5: M103205H795-MY529 / M103202L889-SK1 (antibody, human IgG1, kappa, name in EU numbering)
heavy: QVTLKESGPVLVKPTETLTLTCTVSGIDLSHDDISWVRQAPGKGLEWVGIISYAGSTYYASWAKGRLTISKDTSKNQVVLTMTNMDPVDTATYYCARGVPAYSHGGDLWGQGTLVTVSSASTKGPSVFPLAPSSKSTSGGTAALGCLVKDYFPEPVTVSWNSGALTSGVHTFPAVLQSSGLYSLSSVVTVPSSSLGTQTYICNVNHKPSNTKVDKKVEPKSCDKTHTCPPCPAPEWLTGPSVFLFPPKPKDTLMISRTPEVTCVVVDVSDEDPEVKFNWYVDGVEVHNAKTKPREELYNSTYRVVSVLTVLHQDWLNGKEYKCKVSNKALPKPIEKTISKAKGQPREPQVYTLPPSREEMTKNQVSLTCLVKGFYPSDIAVEWESNGQPENNYKTTPPVLDSDGSFFLYSKLTVDKSRWQQGNVFSCSVMHEALHNHYTQKSLSLSP
light: DIVMTQSPATLSLSPGERATLSCTSSQSVYHANWLSWFQQKPGQPPKLLIYWASTLAYGVPSRFSGSGSGTDFTLTISSLQPEDAATYYCAGGYGGGRYAFGQGTKVEIKRTVAAPSVFIFPPSDEQLKSGTASVVCLLNNFYPREAKVQWKVDNALQSGNSQESVTEQDSKDSTYSLSSTLTLSKADYEKHKVYACEVTHQGLSSPVTKSFNRGEC
In test [6], B5 gave a Kd of 300 nM. Moreover, in test [8], the “KD fold (SG1 = 1)” value amounted to 5 fold.
